PMC9735246 (Cell, 2022)

Experiments:
Human α-tubulin (TUBA1B) [1] = biological target: T1, Human α-tubulin (TUBA1B) (human, UniProt P68363 1-451); assay: cross-linking
Human β-tubulin (TBB5) [2] = biological target: T2, Human β-tubulin (TBB5) (human, UniProt P07437 1-444); assay: cross-linking
Human β-tubulin (TBB5) [3] = biological target: T2, Human β-tubulin (TBB5); assay: native gel or EMSA
Human α-tubulin (TUBA1B) [4] = biological target: T1, Human α-tubulin (TUBA1B); assay: native gel or EMSA

T1 sequence (P68363 whole entry): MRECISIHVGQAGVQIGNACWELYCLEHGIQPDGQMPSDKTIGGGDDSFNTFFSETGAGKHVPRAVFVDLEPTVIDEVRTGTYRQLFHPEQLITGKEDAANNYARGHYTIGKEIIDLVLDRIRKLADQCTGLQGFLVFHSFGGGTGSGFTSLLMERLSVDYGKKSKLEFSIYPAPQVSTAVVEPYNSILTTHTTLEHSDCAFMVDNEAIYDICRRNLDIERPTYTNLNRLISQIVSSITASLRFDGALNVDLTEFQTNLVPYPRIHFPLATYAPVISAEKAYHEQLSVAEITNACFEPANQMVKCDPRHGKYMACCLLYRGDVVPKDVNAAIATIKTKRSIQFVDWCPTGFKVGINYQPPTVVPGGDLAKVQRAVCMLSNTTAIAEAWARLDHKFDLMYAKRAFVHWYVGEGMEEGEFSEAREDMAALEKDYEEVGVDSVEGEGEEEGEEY
T2 sequence (P07437 whole entry): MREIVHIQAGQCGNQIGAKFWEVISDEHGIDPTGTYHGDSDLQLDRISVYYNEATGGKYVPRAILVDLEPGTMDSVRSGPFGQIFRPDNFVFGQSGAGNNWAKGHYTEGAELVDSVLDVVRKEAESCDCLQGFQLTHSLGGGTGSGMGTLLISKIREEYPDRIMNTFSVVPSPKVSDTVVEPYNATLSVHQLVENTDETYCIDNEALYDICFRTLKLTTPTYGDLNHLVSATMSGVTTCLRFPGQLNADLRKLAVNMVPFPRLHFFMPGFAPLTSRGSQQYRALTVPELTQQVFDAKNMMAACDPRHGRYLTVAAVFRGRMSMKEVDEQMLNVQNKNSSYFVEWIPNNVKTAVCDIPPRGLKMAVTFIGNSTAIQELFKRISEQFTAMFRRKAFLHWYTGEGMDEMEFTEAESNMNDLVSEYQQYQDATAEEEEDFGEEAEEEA

B1: PFD3, subunit of human Prefoldin (natural protein)
chain: MAAVKDSCGKGEMATGNGRRLHLGIPEAVFVEDVDSFMKQPGNETADTVLKKLDEQYQKYKFMELNLAQKKRRLKGQIPEIKQTLEILKYMQKKKESTNSMETRFLLADNLYCKASVPPTDKVCLWLGANVMLEYDIDEAQALLEKNLSTATKNLDSLEEDLDFLRDQFTTTEVNMARVYNWDVKRRNKDDSTKNKA
B1: binds (Human α-tubulin (TUBA1B) [1]); binds (Human β-tubulin (TBB5) [2]).

B2: TBCA (natural protein, UniProt O75347 1-108, looked up)
chain: MADPRVRQIKIKTGVVKRLVKEKVMYEKEAKQQEEKIEKMRAEDGENYDIKKQAEILQESRMMIPDCQRRLEAAYLDLQRILENEKDLEEAEEYKEARLVLDSVKLEA
B2: binds (Human β-tubulin (TBB5) [3]).

B3: TBCB (natural protein, UniProt Q99426 1-244, looked up)
chain: MEVTGVSAPTVTVFISSSLNTFRSEKRYSRSLTIAEFKCKLELLVGSPASCMELELYGVDDKFYSKLDQEDALLGSYPVDDGCRIHVIDHSGARLGEYEDVSRVEKYTISQEAYDQRQDTVRSFLKRSKLGRYNEEERAQQEAEAAQRLAEEKAQASSIPVGSRCEVRAAGQSPRRGTVMYVGLTDFKPGYWIGVRYDEPLGKNDGSVNGKRYFECQAKYGAFVKPAVVTVGDFPEEDYGLDEI
B3: binds (Human α-tubulin (TUBA1B) [4]).

B4: PFD1, subunit of human Prefoldin (natural protein)
chain: MAAPVDLELKKAFTELQAKVIDTQQKVKLADIQIEQLNRTKKHAHLTDTEIMTLVDETNMYEGVGRMFILQSKEAIHSQLLEKQKIAEEKIKELEQKKSYLERSVKEAEDNIREMLMARRAQ
B4: binds (Human α-tubulin (TUBA1B) [1]); binds (Human β-tubulin (TBB5) [2]).
